Test results: article PMC6541275

Target: Wild-type Microplasmin (human) (UniProt P00747)
UniProt P00747, sequence (P00747 whole entry): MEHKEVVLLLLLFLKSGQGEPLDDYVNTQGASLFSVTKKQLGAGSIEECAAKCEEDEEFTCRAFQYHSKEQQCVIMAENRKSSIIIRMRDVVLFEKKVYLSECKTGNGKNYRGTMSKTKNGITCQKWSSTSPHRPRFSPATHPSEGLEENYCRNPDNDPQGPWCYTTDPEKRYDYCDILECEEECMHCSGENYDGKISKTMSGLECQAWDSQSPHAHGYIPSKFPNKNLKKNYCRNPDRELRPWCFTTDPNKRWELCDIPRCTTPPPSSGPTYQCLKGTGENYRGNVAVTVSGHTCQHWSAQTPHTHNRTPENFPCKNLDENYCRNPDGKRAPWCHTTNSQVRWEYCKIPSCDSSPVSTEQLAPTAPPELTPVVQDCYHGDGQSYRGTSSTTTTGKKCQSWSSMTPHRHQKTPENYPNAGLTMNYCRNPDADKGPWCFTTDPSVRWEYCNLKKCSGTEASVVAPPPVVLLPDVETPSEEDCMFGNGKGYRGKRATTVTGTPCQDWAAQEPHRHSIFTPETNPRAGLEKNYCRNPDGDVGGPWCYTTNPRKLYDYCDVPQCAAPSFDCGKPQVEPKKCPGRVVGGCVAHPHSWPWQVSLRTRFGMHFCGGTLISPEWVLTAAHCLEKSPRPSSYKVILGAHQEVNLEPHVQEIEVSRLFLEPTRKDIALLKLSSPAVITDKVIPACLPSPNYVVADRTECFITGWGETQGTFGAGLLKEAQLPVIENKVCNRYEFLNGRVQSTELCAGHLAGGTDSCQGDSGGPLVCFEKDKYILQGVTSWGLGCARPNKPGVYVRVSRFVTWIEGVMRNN

In vitro half-life of inactivation by α2-antiplasmin: residual amidolytic activity (Chromozym PL, 405nm) of 20nM microplasmin with 60nM antiplasmin, 100mM sodium phosphate pH 7.2, 25°C, 15sec-30 min: 5 min
B1: α2-antiplasmin (natural protein)
chain: NQEQVSPLTLLKLGNQEPGGQTALKSPPGVCSRDPTPEQTHRLARAMMAFTADLFSLVAQTSTCPNLILSPLSVALALSHLALGAQNHTLQRLQQVLHAGSGPCLPHLLSRLCQDLGPGAFRLAARMYLQKGFPIKEDFLEQSEQLFGAKPVSLTGKQEDDLANINQWVKEATEGKIQEFLSGLPEDTVLLLLNAIHFQGFWRNKFDPSLTQRDSFHLDEQFTVPVEMMQARTYPLRWFLLEQPEIQVAHFPFKNNMSFVVLVPTHFEWNVSQVLANLSWDTLHPPLVWERPTKVRLPKLYLKHQMDLVATLSQLGLQELFQAPDLRGISEQSLVVSGVQHQSTLELSEVGVEAAAATSIAMSRMSLSSFSVNRPFLFFIFEDTTGLPLFVGSVRNPNPSAPRELKEQQDSPGNKDFLQSLKGFPRGDKLFGPDLKLVPPMEEDYPQFGSPK
